Laboratory results: patent US20150191530A1 (POMONA RICERCA S R L, published 2015)

Tests used:
[1] = target: T1, recombinant JCV VP1 protein (Mad1 strain, Abcam ab74569) (JC virus, Mad1 strain, UniProt P03089 1-354); test: method not stated
T1 construct: also called recombinant VP1 from Mad1 strain; VP1/JCV

bovine serum albumin = target: T2, bovine serum albumin (bovine, UniProt P02769 25-607); test: ELISA with crude Fab preparations
T2 construct: also called BSA

[2] = target: T3, recombinant BKV VP1 protein (Abcam ab74567) (BK virus, UniProt P03088 1-362); test: ELISA on recombinant JCV VP1 and recombinant BKV VP1
T3 sequence: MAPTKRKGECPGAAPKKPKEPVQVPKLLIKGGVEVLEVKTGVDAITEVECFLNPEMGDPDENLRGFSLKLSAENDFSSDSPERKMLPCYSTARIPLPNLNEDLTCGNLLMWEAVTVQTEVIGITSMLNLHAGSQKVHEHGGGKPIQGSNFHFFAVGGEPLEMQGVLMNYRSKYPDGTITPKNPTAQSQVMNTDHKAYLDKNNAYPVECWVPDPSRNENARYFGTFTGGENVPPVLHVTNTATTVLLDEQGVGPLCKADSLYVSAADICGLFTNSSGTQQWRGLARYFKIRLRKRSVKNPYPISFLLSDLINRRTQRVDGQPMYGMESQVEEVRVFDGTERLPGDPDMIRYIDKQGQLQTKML

T2 sequence (P02769 25-607 limits assumed): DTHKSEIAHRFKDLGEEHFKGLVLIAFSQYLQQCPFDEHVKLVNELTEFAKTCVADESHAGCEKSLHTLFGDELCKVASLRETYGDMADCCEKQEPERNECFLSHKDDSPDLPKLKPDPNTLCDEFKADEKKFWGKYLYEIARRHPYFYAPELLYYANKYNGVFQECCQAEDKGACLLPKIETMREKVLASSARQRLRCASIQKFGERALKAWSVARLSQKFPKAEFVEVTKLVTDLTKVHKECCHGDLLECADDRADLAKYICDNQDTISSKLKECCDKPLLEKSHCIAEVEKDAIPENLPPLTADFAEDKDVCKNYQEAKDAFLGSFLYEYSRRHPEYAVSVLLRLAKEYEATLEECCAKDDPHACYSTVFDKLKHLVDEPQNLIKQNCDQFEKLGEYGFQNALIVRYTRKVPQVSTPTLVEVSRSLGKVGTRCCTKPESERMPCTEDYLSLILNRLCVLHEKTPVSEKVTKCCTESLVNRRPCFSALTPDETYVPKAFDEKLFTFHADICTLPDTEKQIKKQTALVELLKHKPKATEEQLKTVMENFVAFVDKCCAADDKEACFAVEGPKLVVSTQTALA
T1 sequence (P03089 whole entry): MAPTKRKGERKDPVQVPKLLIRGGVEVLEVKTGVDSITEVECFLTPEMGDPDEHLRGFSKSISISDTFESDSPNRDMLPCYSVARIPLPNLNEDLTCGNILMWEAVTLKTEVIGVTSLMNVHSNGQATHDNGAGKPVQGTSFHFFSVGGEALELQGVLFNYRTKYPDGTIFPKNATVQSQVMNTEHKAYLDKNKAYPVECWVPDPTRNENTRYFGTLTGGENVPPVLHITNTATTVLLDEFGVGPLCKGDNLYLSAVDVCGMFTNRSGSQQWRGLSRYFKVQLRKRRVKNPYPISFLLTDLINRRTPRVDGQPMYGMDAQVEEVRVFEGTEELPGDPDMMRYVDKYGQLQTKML

B1: GRE1 human anti-JCV VP1 monoclonal antibody (Fab, V domains shown)
VH: WGPGLVKPSQSLSLTCAVSGASVSSGINYWSWIRLYPGKGLEWIGYVYSSGTTYYNPSLKSRVSISLDTSKNQFSLNLRSVTAADTAVYYCARDRGDSSGSSYYKYYMDVWGKGTTVTVSS
VL: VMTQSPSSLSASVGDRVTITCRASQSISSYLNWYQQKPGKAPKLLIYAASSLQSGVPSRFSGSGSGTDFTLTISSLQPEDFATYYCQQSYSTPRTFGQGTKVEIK
notes: also called IgG GRE; JCV-GRE1
[1]
  Kd: ~1 nM
Bovine serum albumin
  binding result: no binding
[2]
  binding result: no binding
